Source: patent US20230365685A1

What was measured:
[1] = target: biotinylated human TIM-3 (human) (UniProt Q8TDQ0); experiment: competition ELISA: antibody coated, biotinylated human TIM-3 preincubated with competitor MBG453
[2] = target: biotinylated human TIM-3 (human) (UniProt Q8TDQ0); experiment: competition ELISA: antibody coated, biotinylated human TIM-3 preincubated with competitor TSR022
[3] = target: biotinylated human TIM-3 (human) (UniProt Q8TDQ0); experiment: competition ELISA: antibody coated, biotinylated human TIM-3 preincubated with competitor CH 10#
[4] = target: biotinylated human TIM-3 (human) (UniProt Q8TDQ0); experiment: competition ELISA: antibody coated, biotinylated human TIM-3 preincubated with competitor 19D11
[5] = target: biotinylated human TIM-3 (human) (UniProt Q8TDQ0); experiment: competition ELISA: antibody coated, biotinylated human TIM-3 preincubated with competitor 3E6
[6] = target: biotinylated human TIM-3 (human) (UniProt Q8TDQ0); experiment: competition ELISA: antibody coated, biotinylated human TIM-3 preincubated with competitor 4H2
[7] = target: biotinylated human TIM-3 (human) (UniProt Q8TDQ0); experiment: competition ELISA: antibody coated, biotinylated human TIM-3 preincubated with competitor 16H1
[8] = target: biotinylated human TIM-3 (human) (UniProt Q8TDQ0); experiment: competition ELISA: antibody coated, biotinylated human TIM-3 preincubated with competitor CH 11#

B1: MBG453 (antibody, INN chains, looked up, V domains shown)
VH: QVQLVQSGAEVKKPGSSVKVSCKASGYTFTSYNMHWVRQAPGQGLEWMGDIYPGNGDTSYNQKFKGRVTITADKSTSTVYMELSSLRSEDTAVYYCARVGGAFPMDYWGQGTTVTVSS
VL: AIQLTQSPSSLSASVGDRVTITCRASESVEYYGTSLMQWYQQKPGKAPKLLIYAASNVESGVPSRFSGSGSGTDFTLTISSLQPEDFATYFCQQSRKDPSTFGGGTKVEIKR
inhibit percentage [1]: 100%
inhibit percentage [2]: 94.8%
inhibit percentage [3]: 15.8%
inhibit percentage [4]: 4.39%
inhibit percentage [5]: 94.3%
inhibit percentage [6]: 95.9%
inhibit percentage [7]: 99.2%
inhibit percentage [8]: 8.29%

B2: TSR022 (antibody, INN chains, looked up, V domains shown)
VH: EVQLLESGGGLVQPGGSLRLSCAAASGFTFSSYDMSWVRQAPGKGLDWVSTISGGGTYTYYQDSVKGRFTISRDNSKNTLYLQMNSLRAEDTAVYYCASMDYWGQGTTVTVSS
VL: DIQMTQSPSSLSASVGDRVTITCRASQSIRRYLNWYHQKPGKAPKLLIYGASTLQSGVPSRFSGSGSGTDFTLTISSLQPEDFAVYYCQQSHSAPLTFGGGTKVEIK
inhibit percentage [1]: 99.1%
inhibit percentage [2]: 100%
inhibit percentage [3]: 40.5%
inhibit percentage [4]: 0%
inhibit percentage [5]: 95.8%
inhibit percentage [6]: 98.1%
inhibit percentage [7]: 70.2%
inhibit percentage [8]: 0%
